Test results: article PMC10115629, “Structural basis for GSDMB pore formation and its targeting by IpaH7.8” (Nature, 2023)

B1: Shigella flexneri IpaH7.8 without affinity tag (co-expressed with GSDMB) (enzyme)
chain: MFSVNNTHSSVSCSPSINSNSTSNEHYLRILTEWEKNSSPGEERGIAFNRLSQCFQNQEAVLNLSDLNLTSLPELPKHISALIVENNKLTSLPKLPAFLKELNADNNRLSVIPELPESLTTLSVRSNQLENLPVLPNHLTSLFVENNRLYNLPALPEKLKFLHVYYNRLTTLPDLPDKLEILCAQRNNLVTFPQFSDRNNIRQKEYYFHFNQITTLPESFSQLDSSYRINISGNPLSTRVLQSLQRLTSSPDYHGPQIYFSMSDGQQNTLHRPLADAVTAWFPENKQSDVSQIWHAFEHEEHANTFSAFLDRLSDTVSARNTSGFREQVAAWLEKLSASAELRQQSFAVAADATESCEDRVALTWNNLRKTLLVHQASEGLFDNDTGALLSLGREMFRLEILEDIARDKVRTLHFVDEIEVYLAFQTMLAEKLQLSTAVKEMRFYGVSGVTANDLRTAEAMVRSREENEFTDWFSLWGPWHAVLKRTEADRWAQAEEQKYEMLENEYSQRVADRLKASGLSGDADAEREAGAQVMRETEQQIYRQLTDEVLALRLSENGSRLHHS
notes: only the LRR domain is visible in the map; source: E. coli BL21 (DE3), co-expressed with His6-SUMO-GSDMB, complex purified (Ni-NTA, Hitrap Q, Superdex 200)
B3: human GSDMB isoform 1 construct for cryo-EM, 3C protease site inserted after K239 (uncleaved, full length) (natural protein)
chain: MFSVFEEITRIVVKEMDAGGDMIAVRSLVDADRFRCFHLVGEKRTFFGCRHYTTGLTLMDILDTDGDKWLDELDSGLQGQKAEFQILDNVDSTGELIVRLPKEITISGSFQGFHHQKIKISENRISQQYLATLENRKLKRELPFSFRSINTRENLYLVTETLETVKEETLKSDRQYKFWSQISQGHLSYKHKGQREVTIPPNRVLSYRVKQLVFPNKETMSAGLDIHFRGKTKSFPEGKLEVLFQGPSLGSEDSRNMKEKLEDMESVLKDLTEEKRKDVLNSLAKCLGKEDIRQDLEQRVSEVLISGELHMEDPDKPLLSSLFNAAGVLVEARAKAILDFLDALLELSEEQQFVAEALEKGTLPLLKDQVKSVMEQNWDELASSPPDMDYDPEARILCALYVVVSILLELAEGPTSVSS
notes: human gasdermin B isoform 1 (Q8TAX9-1), full length, with a human rhinovirus 3C protease site (LEVLFQ/GP) inserted after residue K239; The methods say the 3C site is in 'the GSDMB construct used for cryo-EM structural determination'; source: E. coli BL21 (DE3), co-expressed with IpaH7.8, complex purified (Ni-NTA, Hitrap Q, Superdex 200); not shown: His6-SUMO, N-terminal, cleaved

Tests used:
[1] = biological target: human GSDMB (isoform 1, Q8TAX9-1), full length (human); assay: ITC; VP-ITC, 20 °C, 25 mM Tris-HCl pH 8.0, 150 mM NaCl; IpaH7.8 (200 μM) injected into GSDMB (10 μM), or IpaH7.8 (625 μM) into hGSDMD or mGSDMD (40 μM); 25 injections; one-site binding model
[2] = biological target: B3; assay: cryo-EM structure; GSDMB-IpaH7.8 complex co-expressed in E. coli and co-purified, 0.5 mg/ml, 25 mM HEPES pH 7.5, 150 mM NaCl; 3.8 Å; details: both partners purified
[3] = biological target: T1, human GSDMD, full length (human), P57764; assay: ITC; VP-ITC, 20 °C, 25 mM Tris-HCl pH 8.0, 150 mM NaCl; IpaH7.8 (200 μM) injected into GSDMB (10 μM), or IpaH7.8 (625 μM) into hGSDMD or mGSDMD (40 μM); 25 injections; one-site binding model; details: remark: other sources report otherwise
T1 chain: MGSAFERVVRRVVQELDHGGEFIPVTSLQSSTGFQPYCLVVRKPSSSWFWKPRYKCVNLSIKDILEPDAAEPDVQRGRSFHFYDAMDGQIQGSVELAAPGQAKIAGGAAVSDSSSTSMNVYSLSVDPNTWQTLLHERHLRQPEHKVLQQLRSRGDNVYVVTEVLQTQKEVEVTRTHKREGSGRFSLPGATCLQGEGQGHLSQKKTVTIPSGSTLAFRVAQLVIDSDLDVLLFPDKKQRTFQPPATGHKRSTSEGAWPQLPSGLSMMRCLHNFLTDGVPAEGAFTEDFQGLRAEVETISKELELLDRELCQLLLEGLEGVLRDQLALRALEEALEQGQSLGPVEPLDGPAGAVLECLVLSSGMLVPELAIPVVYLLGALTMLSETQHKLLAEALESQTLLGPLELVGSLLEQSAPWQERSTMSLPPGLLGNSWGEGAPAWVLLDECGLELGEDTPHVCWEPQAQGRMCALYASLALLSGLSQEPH

[4] = biological target: the molecule itself; assay: cryo-EM structure; GSDMB isoform 1 cleaved by 3C protease on liposomes, pores solubilised with C12E8 and purified on Superose 6; C24 symmetry, 4.96 Å (globular domain 4.48 Å)
[5] = biological target: B1; assay: cryo-EM structure; GSDMB-IpaH7.8 complex co-expressed in E. coli and co-purified, 0.5 mg/ml, 25 mM HEPES pH 7.5, 150 mM NaCl; 3.8 Å; details: both partners purified

Shigella flexneri IpaH7.8 (wild type), C-terminal 6XHis construct (from UniProt P18014 1-565) (enzyme)
Kd [1]: 440 nM

B1
stoichiometry N [2]: 1 | Kd [3]: 20.4 µM

B2: GSDMB isoform 1 pore subunit (N-terminal domain after 3C protease cleavage) (domain or fragment)
chain: MFSVFEEITRIVVKEMDAGGDMIAVRSLVDADRFRCFHLVGEKRTFFGCRHYTTGLTLMDILDTDGDKWLDELDSGLQGQKAEFQILDNVDSTGELIVRLPKEITISGSFQGFHHQKIKISENRISQQYLATLENRKLKRELPFSFRSINTRENLYLVTETLETVKEETLKSDRQYKFWSQISQGHLSYKHKGQREVTIPPNRVLSYRVKQLVFPNKETMSAGLDIHFRGKTKSFPEGKLEVLFQ
notes: human gasdermin B isoform 1 (Q8TAX9-1), from the start to K239, after which the 3C site was inserted; what is left of the 3C protease site (LEVLFQ/GP) after cleavage; Pores were 24-26-fold symmetric; GSDMB-C was removed by size exclusion; also called GSDMB pore; GSDMB prepore; source: E. coli BL21 (DE3), purified; cleaved by 3C protease on liposomes, pores extracted with C12E8 and purified on …
stoichiometry N [4]: 24

B3
binding result [5]: binds
